Measurements as given in patent US20090041768A1 (published 2009).

Target: FcRn
Experiment: Biacore FcRn binding

Sequence of FcRn (chain, as listed by the source, chain 1 of 2): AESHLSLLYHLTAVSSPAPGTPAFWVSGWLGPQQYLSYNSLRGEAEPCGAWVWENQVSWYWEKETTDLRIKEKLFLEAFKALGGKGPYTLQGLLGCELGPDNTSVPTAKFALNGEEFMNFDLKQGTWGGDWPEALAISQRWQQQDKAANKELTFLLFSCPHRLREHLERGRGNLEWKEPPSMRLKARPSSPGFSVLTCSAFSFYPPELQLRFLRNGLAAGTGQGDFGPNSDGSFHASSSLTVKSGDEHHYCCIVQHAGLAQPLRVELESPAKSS
Sequence of FcRn (chain, as listed by the source, chain 2 of 2): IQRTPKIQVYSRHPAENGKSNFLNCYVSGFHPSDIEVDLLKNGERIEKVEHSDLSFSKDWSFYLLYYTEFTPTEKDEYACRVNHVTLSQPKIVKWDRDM

B1: Fc-loop TN8-19-07 (clone #6951) (Fc fusion)
chain: MDKTHTCPPCPAPELLGGPSVFLFPPKPKDTLMISRTPEVTCVVVDVSHEDPEVKFNWYVDGVEVHNAKTKPREEQYNSTYRVVSVLTVLHQDWLNGKEYKCKVSNKALPAPIEKTISKAKGQPREPQVYTLPPSRDELGGLADHGQCIRWPWMCPPEGWEGGTKNQVSLTCLVKGFYPSDIAVEWESNGQPENNYKTTPPVLDSDGSFFLYSKLTVDKSRWQQGNVFSCSVMHEALHNHYTQKSLSLSPGK
notes: also called Fc-loop-myo7; myostatin loop peptibody
Work on B1 yielded an EC50 of about 680 nM.
